Laboratory results as given in patent US20240383982A1 (Genmab, published 2024).

What was measured:
[1] = biological target: T1, pig (Sus scrofa) B7H4, full length, on HEK-293F cells (pig, UniProt Q7Z7D3 26-282 (human entry)); test: flow cytometry, HEK-293F cells transfected with pig B7H4 [panel Pig B7H4]
T1 construct: Uniprot F1SAY4; also called pig B7H4
T1 chain: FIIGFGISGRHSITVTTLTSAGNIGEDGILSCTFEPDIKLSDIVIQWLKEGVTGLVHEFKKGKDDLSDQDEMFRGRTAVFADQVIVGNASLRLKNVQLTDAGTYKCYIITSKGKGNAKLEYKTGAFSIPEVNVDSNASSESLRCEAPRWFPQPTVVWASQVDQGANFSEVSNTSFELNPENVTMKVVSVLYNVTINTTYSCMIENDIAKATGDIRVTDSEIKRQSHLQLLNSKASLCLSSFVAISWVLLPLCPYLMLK
Protocol: (§1) Cells (3×10⁴ cells/well) were incubated in polystyrene 96-well round-bottom plates (Greiner bio-one, cat. no. 650180) with serial dilutions of antibodies (ranging from 0.000458 to 30 μg/mL in 4-fold dilution steps) in 100 μL PBS/0.1% BSA/0.02% azide (staining buffer) at 4° C. for 30 min. Experiments were performed in technical duplicate. After washing twice in staining buffer, cells were incubated in 50 μL secondary antibody at 4° C. for 30 min. As a secondary antibody, R-Phycoerythrin (PE)-conjugated goat-anti-human IgG F(ab′)₂ (1:500 in FACS buffer; Jackson ImmunoResearch Laboratories, Inc., West Grove, PA, cat. no. 109-116-098), was used. Cells were washed twice in staining buffer, re-suspended in 30 μL FACS buffer containing Topro-3 (1:10,000 dilution) and analyzed on an iQue Screener (Intellicyt Corporation, USA). Binding curves were analyzed using non-linear regression (sigmoidal dose-response with variable slope) using GraphPad Prism V7.02 software (GraphPad Software, San Diego, CA, USA).

[2] = biological target: T2, mouse B7H4 ECD-His (R&D Systems, cat. no. 2154-B7-050) (mouse, UniProt Q7TSP5 29-256); test: BLI (Octet HTX); antibody on anti-human IgG Fc capture sensor, mouse B7H4 ECD-His in solution; 2nd experiment
T2 construct: Bought ECD-His protein (26.6 kDa); also called mouse B7H4 extracellular domain
T2 sequence: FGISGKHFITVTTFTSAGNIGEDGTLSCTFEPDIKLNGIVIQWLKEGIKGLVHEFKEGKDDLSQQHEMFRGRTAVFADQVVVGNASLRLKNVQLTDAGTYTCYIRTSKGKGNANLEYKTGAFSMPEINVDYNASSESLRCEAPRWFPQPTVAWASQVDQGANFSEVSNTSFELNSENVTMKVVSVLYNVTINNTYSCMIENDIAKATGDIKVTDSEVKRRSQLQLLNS
Protocol: (§2) Target binding affinity of B7H4 antibodies was determined by label-free biolayer interferometry (BLI) on an Octet HTX instrument (FortéBio). Experiments were carried out while shaking at 1,000 RPM at 30° C. […] Anti-Human IgG Fc Capture (AHC) biosensors (FortéBio, cat. no. 18-5060) were pre-conditioned by exposure to 10 mM glycine (Sigma-Aldrich, cat. no. 15527) buffer pH 1.7 for 5 s, followed by neutralization in Sample Diluent (FortéBio, cat. no. 18-1048) for 5 s; both steps were repeated 2 times. Next, AHC sensors were loaded with antibody (1 μg/mL in Sample diluent) for 600 s. […] The theoretical molecular mass of human B7H4 and mouse B7H4 (as ECD-His tagged molecules) based on their amino acid sequences (26.8 kDa and 26.6 kDa respectively) were used for calculations. For each antibody a reference sensor was used, which was incubated with Sample Diluent instead of antigen. AHC sensors were regenerated by exposure to 10 mM glycine buffer pH 1.7 for 5 s, followed by neutralization in Sample Diluent for 5 s; both steps were repeated twice. Subsequently sensors were loaded again with antibody for the next cycle of kinetics measurements.
(§3) Data were acquired using Data Acquisition Software v9.0.0.49d (FortéBio) and analyzed with Data Analysis Software v9.0.0.12 (FortéBio). Data traces were corrected per antibody by subtraction of the reference sensor. The Y-axis was aligned to the last 10 s of the baseline, Interstep Correction alignment to dissociation and Savitzky-Golay filtering were applied. Data traces with a response<0.05 nm were excluded from analysis. The data was fitted with the 1:1 Global Full fit model using a window of interest for the association and dissociation times set at 300 s and 200 s respectively.

[3] = biological target: T2, mouse B7H4 ECD-His (R&D Systems, cat. …); test: BLI (Octet HTX); antibody on anti-human IgG Fc capture sensor, mouse B7H4 ECD-His in solution; 1st experiment
Protocol: as §2, §3

[4] = biological target: T3, rat (Rattus norvegicus) B7H4, full length, on HEK-293F cells (rat, UniProt Q501W4 25-257); test: flow cytometry, HEK-293F cells transfected with rat B7H4 [panel Rat B7H4]
T3 construct: Uniprot Q501W4; also called rat B7H4
T3 sequence: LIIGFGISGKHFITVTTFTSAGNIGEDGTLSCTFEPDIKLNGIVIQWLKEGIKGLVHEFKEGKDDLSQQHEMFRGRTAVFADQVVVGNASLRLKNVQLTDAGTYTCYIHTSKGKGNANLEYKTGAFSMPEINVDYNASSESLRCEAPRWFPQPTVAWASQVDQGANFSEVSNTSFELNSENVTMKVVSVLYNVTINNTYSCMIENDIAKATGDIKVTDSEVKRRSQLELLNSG
Protocol: as §1

[5] = biological target: T4, rabbit (Oryctolagus cuniculus) B7H4, full length, on HEK-293F cells (rabbit, UniProt Q7Z7D3 25-282 (human entry)); test: flow cytometry, transiently transfected HEK-293F cells
T4 construct: Uniprot G1TQE8; also called rabbit B7H4
T4 chain: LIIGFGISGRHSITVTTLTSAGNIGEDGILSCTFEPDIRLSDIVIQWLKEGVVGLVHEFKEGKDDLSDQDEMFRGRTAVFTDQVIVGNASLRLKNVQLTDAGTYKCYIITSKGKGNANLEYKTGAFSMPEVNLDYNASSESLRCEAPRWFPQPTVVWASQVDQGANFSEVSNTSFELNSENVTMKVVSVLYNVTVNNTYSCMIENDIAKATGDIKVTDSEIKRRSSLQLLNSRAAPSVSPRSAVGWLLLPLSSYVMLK

B7H4-IgV/B7H3-IgC = biological target: T5, B7H4-IgV/B7H3-IgC; test: flow cytometry, HEK cells transiently transfected with B7H4-IgV/B7H3-IgC, PE anti-human IgG F(ab')2 [panel B7H4-IgV/B7H3-IgC]
T5 construct: also called chimeric molecule with the IgV domain of B7H4 and the IgC domain of B7H3
T5 full-length chimeric protein on cells: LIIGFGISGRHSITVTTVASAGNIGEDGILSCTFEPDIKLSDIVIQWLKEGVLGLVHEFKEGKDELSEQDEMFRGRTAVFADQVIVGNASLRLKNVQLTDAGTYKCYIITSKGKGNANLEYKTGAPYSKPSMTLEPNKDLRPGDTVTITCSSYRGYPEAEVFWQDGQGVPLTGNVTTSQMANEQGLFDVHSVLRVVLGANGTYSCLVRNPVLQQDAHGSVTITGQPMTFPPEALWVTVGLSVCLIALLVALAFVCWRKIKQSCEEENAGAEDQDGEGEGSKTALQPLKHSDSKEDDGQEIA
Protocol: After washing twice in FACS buffer, cells were incubated with secondary antibody at 4° C. for 30 min. […] Next, cells were washed twice in FACS buffer, re-suspended in 20 μL FACS buffer and analyzed on an iQue Screener (Intellicyt Corporation, USA).
Further experiments were conducted to study the B7H4 domain specificity of the B7H4 antibodies in more detail, by analysis of full dose-response curves.

[6] = biological target: T6, recombinant hIgG1 Fc-tagged cynomolgus monkey B7H4 (Creative BioMart, cat. no. VTCN1-1517R) (cynomolgus monkey, UniProt Q7Z7D3 25-259 (human entry)); test: BLI (Octet HTX); Fc-tagged cynomolgus B7H4 coupled to AR2G sensor, bispecific antibody in solution (monovalent B7H4 binding); 1st experiment
T6 construct: Bought protein; also called cynomolgus monkey B7H4 extracellular domain
T6 sequence: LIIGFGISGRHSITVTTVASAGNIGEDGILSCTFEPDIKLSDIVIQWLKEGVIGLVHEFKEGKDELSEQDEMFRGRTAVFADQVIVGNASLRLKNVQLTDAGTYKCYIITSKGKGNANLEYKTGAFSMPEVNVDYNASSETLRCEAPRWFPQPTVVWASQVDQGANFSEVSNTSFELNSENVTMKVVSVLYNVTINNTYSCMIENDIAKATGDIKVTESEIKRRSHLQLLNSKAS
Protocol: In addition, the affinity of for cynomolgus monkey B7H4 was determined by BLI. […] Amine Reactive 2nd Generation (AR2G) biosensors (FortéBio, cat. no. 18-5092) were activated by reaction with 20 mM EDC (N-(3-Dimethylaminopropyl)-N′-ethylcarbodiimide hydrochloride) (FortéBio, cat. no. 18-1033) and 10 mM s-NHS (N-hydroxysulfosuccinimide sodium salt) (FortéBio, cat. no. 18-1067) for 300 s. The activated sensors were loaded with 10 μg/mL recombinant hIgG1 Fc-tagged cynomolgus monkey B7H4 (Creative BioMart, cat. no. VTCN1-1517R) in 10 mM Sodium Acetate pH 4.0 (FortéBio, cat. no. 18-1068) for 600 s and quenched with 1 M ethanolamine pH 8.5 (FortéBio, cat. no. 18-1071) for 300 s. […] A molecular mass of 150 kDa of the antibodies was used for calculations. For each antibody a reference sensor was used, which was incubated with Sample Diluent instead of antibody.
as §3, with “100” for “300”

B1: IgG1-B7H4-C3-FEAR (antibody, V domains shown)
VH: EVQLVQSGAEVKKPGASVKVSCKASGYTFTNFWIHWVRQAPGQGLEWIGEIDPSDSYTNYNQKFKGRVTITRDTSTSTAYLELSSLRSEDTAVYYCAREITTVDYWGQGTLVTVSS
VL: DIQMTQSPSSLSASVGDRVTITCSATSSISYMHWYQQKPGKAPKGWIYDTSKLAHGVPSRFSGSGSGTDFTLTISSLQPEDFATYYCHQRRSYPFTFGQGTKVEIKR
notes: Full length IgG1 FEAR, kappa; variable domains from WO2014159835
[1]
  binding result: no binding (tested: 30 µg/ml)

B2: IgG1-B7H4-C2-FEAR (antibody, V domains shown)
VH: EVQLVQSGAEVKKPGASVKVSCKASGYTFTSYWIGWVRQAPGQGLEWIGDIYPGGGYTNYNEKFKGRVTITRDTSTSTAYLELSSLRSEDTAVYYCARLDGSSYRGAMDSWGQGTLVTVSS
VL: DIQMTQSPSSLSASVGDRVTITCKASQGFNKYVAWYQQKPGKAPKLLIYYTSTLQPGVPSRFSGSGSGRDYTLTISSLQPEDFATYYCLQYGNLLYAFGQGTKVEIKR
notes: as for B1
[2]
  Kd: 2.1 nM
  koff: 0.00013 s⁻¹
  kon: 63000 M⁻¹ s⁻¹
[1]
  binding result: binds
[3]
  Kd: 24 nM
  koff: 0.00077 s⁻¹
  kon: 33000 M⁻¹ s⁻¹
[4]
  binding result: binds
[5]
  binding result: binds

B3: bsIgG1-huCD3-H101G-FEALxB7H4-C2-FEAR (bispecific antibody)
heavy 1: not shown
light 1: not shown
heavy 2: EVQLVQSGAEVKKPGASVKVSCKASGYTFTSYWIGWVRQAPGQGLEWIGDIYPGGGYTNYNEKFKGRVTITRDTSTSTAYLELSSLRSEDTAVYYCARLDGSSYRGAMDSWGQGTLVTVSSASTKGPSVFPLAPSSKSTSGGTAALGCLVKDYFPEPVTVSWNSGALTSGVHTFPAVLQSSGLYSLSSVVTVPSSSLGTQTYICNVNHKPSNTKVDKRVEPKSCDKTHTCPPCPAPEFEGGPSVFLFPPKPKDTLMISRTPEVTCVVVAVSHEDPEVKFNWYVDGVEVHNAKTKPREEQYNSTYRVVSVLTVLHQDWLNGKEYKCKVSNKALPAPIEKTISKAKGQPREPQVYTLPPSREEMTKNQVSLTCLVKGFYPSDIAVEWESNGQPENNYKTTPPVLDSDGSFFLYSRLTVDKSRWQQGNVFSCSVMHEALHNHYTQKSLSLSPGK
light 2: DIQMTQSPSSLSASVGDRVTITCKASQGFNKYVAWYQQKPGKAPKLLIYYTSTLQPGVPSRFSGSGSGRDYTLTISSLQPEDFATYYCLQYGNLLYAFGQGTKVEIKRTVAAPSVFIFPPSDEQLKSGTASVVCLLNNFYPREAKVQWKVDNALQSGNSQESVTEQDSKDSTYSLSSTLTLSKADYEKHKVYACEVTHQGLSSPVTKSFNRGEC
notes: also called bslgG1-huCD3-H101G-FEALxB7H4-C2-FEAR
B7H4-IgV/B7H3-IgC
  EC50 (read off the curve): ~2 µg/mL

B4: bsIgG1-huCD3-FEALxB7H4-C1-FEAR (bispecific antibody)
heavy 1: not shown
light 1: not shown
heavy 2: QVQLQQWGAGLLKPSETLSLTCAVYGGSFSGYYWSWIRQPPGKGLEWIGEINHSGSTNYNPSLKSRVTISIDTSKNQFSLKLTSVTAADTAVFYCARGLFNWNFDSWGQGTLVTVSSASTKGPSVFPLAPSSKSTSGGTAALGCLVKDYFPEPVTVSWNSGALTSGVHTFPAVLQSSGLYSLSSVVTVPSSSLGTQTYICNVNHKPSNTKVDKRVEPKSCDKTHTCPPCPAPEFEGGPSVFLFPPKPKDTLMISRTPEVTCVVVAVSHEDPEVKFNWYVDGVEVHNAKTKPREEQYNSTYRVVSVLTVLHQDWLNGKEYKCKVSNKALPAPIEKTISKAKGQPREPQVYTLPPSREEMTKNQVSLTCLVKGFYPSDIAVEWESNGQPENNYKTTPPVLDSDGSFFLYSRLTVDKSRWQQGNVFSCSVMHEALHNHYTQKSLSLSPGK
light 2: DIQMTQSPSSLSASVGDRVTITCRASQGIRNDLGWYQQKPGKAPKRLIYGASSLQSGVPSRFSGSGSGTEFTLTISSLQPEDFATYYCLQHNSYPRTFGQGTTVEIKRTVAAPSVFIFPPSDEQLKSGTASVVCLLNNFYPREAKVQWKVDNALQSGNSQESVTEQDSKDSTYSLSSTLTLSKADYEKHKVYACEVTHQGLSSPVTKSFNRGEC
notes: also called bslgG1-huCD3-FEALxB7H4-C1-FEAR
[6]
  Kd: 5.1 nM
  koff: 0.0014 s⁻¹
  kon: 270000 M⁻¹ s⁻¹
